Laboratory results from article PMC7994332, “A Bifan Motif Shaped by ArsR1, ArsR2, and Their Cognate Promoters Frames Arsenic Tolerance of Pseudomonas putida” (Frontiers in Microbiology, 2021).

B1: 6His-ArsR2 (natural protein, Pseudomonas putida KT2440, UniProt Q88JD1 1-115, looked up)
chain: MITPPDVFKSLSDETRARATLLIASLGELCVCELMCALNDSQPKISRHLAQLRSNGMLLDRRQGQWVYYRLNPELPSWVHEMLQVTLQANSQWLADNALRLKNMDGRPVRDSVCC
notes: ArsR2, As(III)-responsive transcriptional repressor of the ars2 operon (SmtB/ArsR family), Pseudomonas putida KT2440; protein of 115 amino acids; 364-bp PCR fragment that includes the arsR2 gene cloned BamHI/HindIII into pQE32; Theoretical monomer mass with tag 14,519 Da; source: E. coli M15 (pREP4, pQE32-ArsR2), purified (Ni-NTA agarose, dialysed)
B2: 6His-ArsR1 (natural protein, Pseudomonas putida KT2440, UniProt Q88LK1 11-128, looked up)
chain: MREILTPPIVFKCLADDTRARMTLLIAREGELCVCELTHALELSQPKISRHLAQLREAGILMDRRKGQWVYYRLHPEVPQWVDAMLKGVVDANQEWLSPDALRLAEMGERPQSPVACA
notes: ArsR1, As(III)-responsive transcriptional repressor of the ars1 operon (SmtB/ArsR family), Pseudomonas putida KT2440; protein of 118 amino acids; 373-bp PCR fragment that includes the arsR1 gene cloned BamHI/HindIII into pQE32; Theoretical monomer mass with tag 14,869 Da; source: E. coli M15 (pREP4, pQE32-ArsR1), purified (Ni-NTA agarose, dialysed)

Assays:
[1] = tested on: 6His-ArsR1 (Pseudomonas putida KT2440); test: EMSA; conditions: no arsenite; 'gross KD'; EMSA: TRRG buffer (20 mM Tris-HCl pH 7.5, 50 mM KCl, 2 mM beta-mercaptoethanol, 10% glycerol), BSA, 25 ug/ml herring sperm DNA, 0.3 nM probe, 20 min 30 C …
[2] = tested on: 6His-ArsR2 (Pseudomonas putida KT2440); test: EMSA; conditions: no arsenite; 'gross KD'; EMSA: TRRG buffer (20 mM Tris-HCl pH 7.5, 50 mM KCl, 2 mM beta-mercaptoethanol, 10% glycerol), BSA, 25 ug/ml herring sperm DNA, 0.3 nM probe, 20 min 30 C …
[3] = molecular target: the molecule itself; test: AUC; sedimentation velocity, 20°C, 48,000 rpm, 20 mM NaH2PO4, 100 mM KCl, 2 mM β-mercaptoethanol, pH 8.0, with or without 2 mM arsenite; data shown for 20 μM protein (methods: 42 μM 6His-ArsR1, 36 μM 6His-ArsR2); s = 2.1 ± 0.1 S

Molecule	stoichiometry N [3]	other results
Pars1 probe		Kd [1]: 200 nM
Pars2 probe		Kd [2]: 500 nM
B1	2	
B2	2	
